Holding throughout (conditions): remark: other sources report otherwise
Assay [1] addresses T1, A Proliferation Inducing Ligand (APRIL) (human), O75888.
T1 chain: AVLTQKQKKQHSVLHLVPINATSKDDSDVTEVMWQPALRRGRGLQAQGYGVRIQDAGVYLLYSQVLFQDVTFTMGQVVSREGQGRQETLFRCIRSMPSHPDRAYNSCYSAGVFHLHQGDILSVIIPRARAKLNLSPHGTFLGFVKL
Description: flow cytometry titration of soluble APRIL (about 0.0005 to 10 nM) on yeast displaying BCMA; one site specific binding fit, nM is the unit of the concentration axis. A general note: Flow cytometry measures light scatter and fluorescence of single cells or particles in a stream.

Assay [2] deals with T1, A Proliferation Inducing Ligand (APRIL) …. Nature of the assay: binding assay of FIG. 1 (flow cytometry titration, one-site specific binding fit; format not stated); FIG. 1 legend, unit printed pM.
For assay [3] the target is unchanged. Description: binding assay of FIG. 1 (flow cytometry titration, one-site specific binding fit; format not stated); Example 4 results, unit printed µM.
The next assay deals with BAFF. Description: cell binding titration by flow cytometry; soluble BAFF varied to 10 nM on cells displaying the BCMA clone; Kd and BP printed as N.D.
Chain of BAFF (chain, as listed by the source): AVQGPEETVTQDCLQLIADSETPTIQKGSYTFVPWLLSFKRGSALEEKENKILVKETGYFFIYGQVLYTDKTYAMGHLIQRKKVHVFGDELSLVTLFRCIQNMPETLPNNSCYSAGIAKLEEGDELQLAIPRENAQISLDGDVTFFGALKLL
In assay [4] the target is T1, A Proliferation Inducing Ligand (APRIL) …. Nature of the assay: cell binding titration by flow cytometry; soluble APRIL varied to 10 nM on cells displaying the BCMA clone; BP is not defined in the filing.
For assay [5] the target is unchanged. Nature of the assay: cell binding titration by flow cytometry; soluble APRIL varied to 10 nM on cells displaying the BCMA clone.
The target is the same in assay [6]. Description: flow cytometry titration of soluble APRIL on yeast displaying BCMA; one site specific binding fit; A.U. from the axis 'Cell binding (A.U.)'.

Experimental findings from patent US20240294604A1 are described below.

B1: wild type human BCMA extracellular domain (sBCMA WT ECD), Q02223 1-54 (receptor)
chain: MLQMAGQCSQNEYFDSLLHACIPCQLRCSSNTPPLTCQRYCNASVTNSVKGTNA
With B1, the dissociation constant Kd came to 0.0323 nM in assay [1], 0.032 nM in assay [2], 0.032 nM in assay [3] and 0.025 nM in assay [5]. Moreover, the Bmax stood at 78.3 A.U in the assay with BAFF, 6560 A.U in assay [5] and 9930 A.U in assay [6]. The molecule further showed a BP in assay [4] of 263.

As usually defined, the Kd is a measure of binding affinity in units of concentration. A lower Kd goes with higher affinity.
